Assay results as given in the DeepSol protein solubility set.

experiment: soluble on expression in E. coli; label from the status in PepcDB or PDB records

Sequence	soluble on expression in E. coli
MGSDKIHHHHHHMTALVCLTGSSCTDDENNGQGNNIIYGENIIGNGEQTFEIKDHQYLKRGTYLMKGWCYVTYGSTLTIEAGTVIKGDKETRAALIVEPGGKLIARGTVDAPIVFTSEMPAGKRKPGDWGGLILCGYARNNEDIMQIEGGPRTMHGGPNNADNSGVLSYVRVEFAGYPFKKNQEINGITFGSVGNGTQIDHLQVSYANDDAFEWFGGTVHAEYLVAYHCWDDDFDIDNGYSGTCRHLLGIRHPRIADITGSHAFECSNNGTNTPATPTTAATFEDVTIYGPASGDASFVNHPDFINGGGLRPENESMLGLFGAALYMGNNTSVTFRNCRISGYPSDMEGTPASADNVVFSEREETGYPEWTQGWCNFNPQETEY	not soluble
MGSDKIHHHHHHMTASLTALRAFDAAARNGSFRAAAADLNVTPTAISHHIRGLEDQLGVKLFRREGRDVALTDDGRRLADATNQAFGLLDNAVQSLRRSARKAVRVSAGPIFTARWLMPRISDFWEAHREIELEVVPAIHPGARDRENVDIVIRWDRIADMGRDAVKLLELSPVAIASEDFVAKRGPIDHPKDLLILPLLHQRNHWGWLDWFEAMGVSLADPLYGPIFEDANVLLRGAAEGQGAIIGWLPLIDQDLAEKRVVRVFDERIAPTHGYFVDVQHNSRARVEVRAVEDWLISQS	not soluble
MGSDKIHHHHHHMTASVNVPLNSRGKLAASLPAEQLAEITALFEFRRTGYSLDAPFYTDRSIFNIDMEAIFGQHWIFAASTAELPEPGDYVTVDYGPYSLIVLRNDDGAVNVLHNVCRHRGARVLTEAAGSTGNLVCGYHSWTYSPEGNLIHASAPGETKFDKSCFGLKRAHGREVAGLIFVCIADDAPTDFDETAKIFEPYLAPHDLSKTKIAYQQNIIEEGNWKLVMENNRECYHCDGHPELACSLFPTWGLTEGLIPPHLEEVWNRNKEAQSSLEERCRRYGLPYEVVEQLDTRIAGIRISRESLDGEGESFSADGRRLSKKLLGDLPDFRLGRCSMHLQPNSWFHFLGDHVITFGVFPINEHQSLVRTTWLVADDAVEGVDYDLEKLTYTWKQTNLQDKAFVELCQQGAGSPAYEPGPYMKSEYQVEAFINWYVQRVQEHLA	not soluble
MGSDKIHHHHHHMTDDSLFLIDVDKILRTKAPKQYKYIPKFVVSYLKKIVHQDEINVFLNESKDKLGVDFLEACMEFLDAKVEVKGIENLPKEGLYTFVSNHPLGGQDGVALGYVLGRHYDGKVKYLVNDLLMNLRGLAPLCVPINKTGKQAKDFPKMVEAGFQSDDQMIMFPAGLCSRRQNGVIRDLEWKKTFIIKSIQAKRDVVPVHFGGRNSDFFYNLANVCKALGIKFNIAMLYLADEMFKNRHKTFTVTFGKPIPWQTFDKSKTPAQWAEYVKDIVYKL	not soluble
MGSDKIHHHHHHMTDSTTLYPVFAEELLPGGGHRSFILKRGELLRLTDLNGNANVSLTLLNAHEKTERLNLPDSLKCQHTAKLSNGHCLYSDMGRVLAAIVTDTCGWSDSIGGVLNAQEVAEKYGQGRYQELRNGFFRNGVDNLLVELGKWGLGLSDLLMTLNLFSRVDVSETGTLHFAPNNSKAGDYIELYAPMDTLVVLTALQHPMDPNPDYVPQPLTLSWMKADASVAEHCRTSRPENERGFINTDRLFA	not soluble
MGSDKIHHHHHHMTEITTLSQFLTTANTQFQVYDLGRRVQHIDALAFHQIESLLAPYPYPIQGHAQLGLVFWQQSAQPYIWFLKLPLDEQGLLSPAPRSQFIQMILDALGRDLTQELTEAQQEQFANHPFSFKPNQHKLALFNALVRQQLGQPASSQYEFAAQYLSEQAVIGESSAVENESHSWEQLGLQGIADVCVRAQSLDNMDSLIRSFDFSPLPVHAALCQCLEHLPLEPSLAEKIYLLFEQASNEHKASYLAALASSPSLSIKAIAHLAQHNLLDANHLVTIAARNWQALKDDSCRKSYLEALALQEQGFFNQVFADIVAIPSLRQALLLDLRNPERSNILSIAIGGLFKAAQS	not soluble
MGSDKIHHHHHHMTEITTLTQFLSTANTQFQVYDLGRRVQHIDMMAFSQIEALQAPYPSPIQGHAQFAIVFWDDSNQHFIWFLKLPLDERGLLSPAPRTQFIRMVIEALGSDPTQALSQDQQDTLANHPFAFKPSAEKLALFNALVRKQLGLPASAQYEFAYQYLSGQVSPERWQDVGLQGLADICVRAAALDHNEQLLNALEHSADEVKIALCQQLEHITLDAPLAERLLSAFYQGSPEQKLYYLRALASAPALAQQAIQYLDEQDALDDNALITIAGRNWTALKDDQTRKIYLEALAKQPQGFFNQIFADIVAIPAIRTQLLMALRDSERSQALANAIGGLFRVTKA	not soluble
MGSDKIHHHHHHMTEVIRDIPFLATDRVEALLDIERHLIVEQSTIERWFRGQWQRTPPPFYASVDLRNAGFKLAPVDTNLFSAGFNNLNPEFSALYVSAIQHYLNQYHPGLERVLLIPENHTRNLFYLESVARLRELLELAGLDVRVGSLILEDRTVYDLPSGGQLLLEPLCRDDGRLSTRGFDAQLILLNNDLSGGVPEILAGLEQPILPPLAAGWRNRRKSQHFTHYRAVAQELAEVIGIDPWLIDPVFRRCQGIDFMRSEGRECLVANVDAVLEITRERYAHYGIHQRPFVIVKADAGTYGMGIMTAYSGEEFLDLNRKERTRMAKSKEGLPVSDVFIQEGVYTFEQTAQEAVAEPVVYMIGQQVLGGFYRVHTERGRDENLNAPGAHFEPMAFGQTCVLPCRKSPPDAPANRYYAYGVIARLTLVAAAREMADWRRQGTLETGQ	not soluble
MGSDKIHHHHHHMTEYKKILVVINPTVDHQAALARAVELATKSNASITAFLSIYDFSYEMTSILSSHEREAMRQGVIDQRSAWLDTAIAPFNSAGVAIDSKVIWHNRPFESVINCALEGQYDLIVKSTHEHDKLKAVIFTPTDWHLMRKAPMPVLMVKEHDWPVAGKILCALNVASEDSEHQTLNGKIIEHAKDLATKFSADVHLVNGYPGTPVNLAIELPDFDAHAYNNNIRMQHQSRVECLAQAYDIPLDRCHVEEGLPEDVIPEVADRIDAELVILGTVGRTGFSAALIGNTAEHVIDSIRCDLLAIKPEGYVSPLAE	not soluble
MGSDKIHHHHHHMTFEKNEHKDIAVIGAGPVGMLAALNLAHKGYSVCLIGPPVDTDELRTTALMMPAIHMLQKLNIWNIVKSHAAALSFIRIIDITSRIIRAPTVNFSSAEIGEEAFGYNIPNVELNNALVASVAHTPNIKRFFSSAHFFHHQPNHIHVTLADGGVVQASLIVAADGRDSRTREAADISVKKWNYPQTALVLNFSHDLSHQNTSTEFHTESGPFTQVPLPGHRSSLVWVVNPSRAEELLRLESKVIAKVIEEQMQSMLGKLTLETPIQAWPLSGLISQRFAANRTILVGEAAHVFPPIGAQGLNLGFRDIQTLIDILPNKISDFNSKKIVAHYNKCRKPDILIRSGSVHMFNSALLSNMLPVHIIRSFGLGLLRNCSPLRNLFTREGIYPGYGFKKIMQTFPIKSHKQESSIFFSVLVKDRDSEMISKSSLF	not soluble
MGSDKIHHHHHHMTFEPYPFERLRALLKEITPKKRGLDLGIGEPQFETPKFIQDALKNHTHSLNIYPKSAFEESLRAAQRGFFKRRFKIELKENELISTLGSREVLFNFPSFVLFDYQNPTIAYPNPFYQIYEGAAKFIKAKSLLMPLTKENDFTPSLNEKELQEVDLVILNSPNNPTGRTLSLEELISWVKLALKHDFILINDECYSEIYENTPPPSLLEACMLAGNEAFKNVLVIHSLSKRSSAPGLRSGFIAGDSRLLEKYKAFRAYLGYTSANAIQKASEAAWLDDRHAEFFRNIYANNLKLARKIFKNTLIYPYSFYVYLPVQNGENFAKTLYQNEGIITLPALYLGRNRIGADYVRLALVYDTPLLEKPLEIIETYRENHA	not soluble
MGSDKIHHHHHHMTHIVHKGLDFFVKPQKVSLNLNMKIGSLKVHPEDLKLLMKKVPVFMMSYYDNKAFMERELEISSADFPNGVVFFSYYEPVPAELNWDVDKKLISQLTKYFHLYDLVHSINSLIDETEGSSLHIGVYEEWLDRIMVKVPSENTEELRNMLSRFSLLYTTKILWKIFRGNFEELKKRTHEIAYKLYEVAGF	not soluble
MGSDKIHHHHHHMTKEINPFIVTGKIEPEYFCDRVKESERLVKSLTNGNNLVIISPRRMGKTGLIRFCYEKPEIKEEYYTFFIDILHTSSLREFTYLLGKEIYETLLPRSKKMASLFIQTVKSINGKFGFDPLTNLPTFNLELGDIDRPEYTLEEIFQCLIAADKPCIVAIDEFQQIAKYPEKNIEALLRTHIQTIENSNFIFAGSERHMMQEMFLSSSRPFYHSADILELKAIVPEIYIPFIADHFQKRKRHIEIENIEKVYRLFKGHTFYIQKTFNEAFADTPKGKECTLEIIKTAIDNLIAYNDTIFREILSNIPEKQKELLYAIAKVGEAENVTSAKFIKRYSLTSASSVQSATKKLLEKDIITEINKVYSVTDKFFGMWINTIYGNKYTL	not soluble
MGSDKIHHHHHHMTKNTVRTYIKQTWKTLTRSHQHLLESAQDTKLEHQPNTPWIIYISPQEDCNTVQSVLERSLSAKEMQQIEIRTLPSEVEAIQEHGLLYLPGAYVVPGGRFNEMYGWDSYFILLGLLQDEEWELAQSQVDQLLYQVQHYGTILNANRTYMLTRSQPPVLSMMVLALFQHTQDQAWLKSTLPLLEQFYYYWVVPPHLNSATGLSRYYALGEGAAPEVLFSELDETGRSHYERVKEYYKTFEIDDYDVSLFYDSERDELTDLFYKGDRSMRESGFDITNRFGPFSVDIVHYAPVCLNSLLYQMEQDLAQIHKILDNPELAEQWSDRATLRRERINQYLWDEEKGIYLDYHFYSGKRRHYEFATTFYPLWTGLSSPEQAQRIVENLSLFTAPGGIFTSTHVTGNQWDAPFGWAPLTLIAVQGLYRYGYRKEGDDIAHKFLTMAIQEFTKYGFFVEKYDVERCSAQVSDEICFGYSSNEIGFGWTNGVILELLANLDDS	not soluble
MGSDKIHHHHHHMTKVAHLTSVHSRYDIRIFRKQCRTLSQYGYDVYLVVADGKGDEVKDGVRIVDVGVLSGRLNRILKTTRKIYEQALALGADVYHFHDPELIPVGLRLKKQGKQVIFDSHEDVPKQLLSKPYMRPFLRRVVAVLFSCYEKYACPKLDAVLTATPHIREKFKNINGNVLDINNFPMLGELDAMVPWASKKTEVCYVGGITSIRGVREVVKSLECLKSSARLNLVGKFSEPEIEKEVRALKGWNSVNEHGQLDREDVRRVLGDSVAGLVTFLPMPNHVDAQPNKMFEYMSSGIPVIASNFPLWREIVEGSNCGICVDPLSPAAIAEAIDYLVSNPCEAAALGRNGQRAVNERYNWDLEGRKLARFYSDLLSKRDSI	not soluble
MGSDKIHHHHHHMTLADYVEIETTKDELIRACKQAADLIRTRVDYKYILVLLFLKKLSDEWKREYREALKTLMEKGVDEEEAKILAKDRSFHKFDYPEKYTWEELRKNVNELPVRLSEALKLLAEKNPELQGVVDRLDFLEFTRARDNFDILVQLFELFSGLNLGRASDSILGDAYEWLIGYFAPQKAKEGEVFTPSEVVELIVRIVDPKPMDSVYDPAAGYARMLIRAYDYVKEKYGEEEVRKLFLYGQEVNPTTYAIAKMNAIVHGIKDINLVVGDTLKNPRFKEGETFRKFDIVIANPPWNQDGYGEEELKKAEFYDERFRYGFTPKQSADWAWIQHMLASAKKKVGVVIDNGCLFRGGKEGAIRKAVVEDDLIECVILLPEKLFYNTGAPGAIIIFNKQKPESRKGKILFINASNEYEKHPEVRKLNRLGEKHIEKIVSAYREFKDGDGFCRVVDVEEVRKNDYNLNVTLYVFPQEEVEEIDVAKEWEELRGIEREIDEVERRIEEYLAELGFGRG	not soluble
MGSDKIHHHHHHMTLKITKSDEVIEVKNLCVTIYSQPGLGKTSLAFTASRPLLLDFDKGAHRAVDRKDVVQVEDWRDVAGISAGDLAAYDTIVIDTVGKALDTLSADIIRANSKLSYGGALNQQGWGQLGVRFSAFLKLLRSFGKDVVLISHMDEKADGDAIKERLKISGGSKDLVLTDSDVIARISIYNRERHLIFSPTETSFGKDPANIGAMPIPEASAETYATCLSDIITQIKEGMNALSEEQVQRKAEIDWFATKLPEMTSAEEINGVLGRAKKAGKDIQKMVVARAKELGFDFDPEAREYVDPSAALADELDDEIPEFDDADEPESPAMAAE	not soluble
